Assay results as given in article PMC5538626, “Structural and functional analysis of the GABARAP interaction motif (GIM)” (EMBO Reports, 2017).

Target: LC3B (for ITC and NMR) (human), Q9GZQ8
Test: ITC; peptide 0.4 mM titrated into 0.020 mM LC3/GABARAP protein in 26 steps, 25°C; 50 mM Na2HPO4, 100 mM NaCl, pH 7.0; one-site model

Binder	Ka	Kd	dH
PQQEDEWGNVQYPD (modifications not checked) [PLEKHM1‐LIR V636G peptide (ITC), Q9Y4G2 629-642]	10000 M⁻¹	> 100 µM	-7.11 kJ/mol
PQQEDEAVNVQYPD (modifications not checked) [PLEKHM1‐LIR W635A peptide (ITC), Q9Y4G2 629-642]	10000 M⁻¹	> 100 µM	-3.35 kJ/mol
